Test: yeast display, Sf9 membrane polyspecificity reagent, FACS + sequencing; frameworks hold sequencing errors
Summary of the method: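 Galactose induction of a Saccharomyces cerevisiae BJ5465 synthetic nanobody display library ran 36–48 hours. The cells were then stained for 1 hour at 4 °C with 10% biotinylated, detergent-solubilized Sf9 membrane reagent, pulled down on streptavidin microbeads and FACS-sorted into low and high (top ~1%) gates on expression and reagent-binding fluorescence. Labels for polyreactivity follow the gate of origin.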

| Sequence | polyreactivity (PSR sort gate) |
| --- | --- |
| QVQLVESGGGLVQAGGSLRLSFAASGFTFYYYTMGWYRQEPGKERELVAGISRRRGSTRYADSVKGRFTISRDNAKNTVYLQMNSLKPEDTAVYYCAAYPVVTEFDYWGQGTQVTVSS | high polyreactivity |
| QVQLVESGGGLVQAGGSLRLSCAASGRTFVQYAMGWYRQAPGKERELVAAISDRGGNTYYADSVKGRFTISRDNAKNTVYLQMNSLKPEDTAVYYCAAKIALDNDYWGQGTQVTVSS | high polyreactivity |
| QVQLVESGGCLVQAGGTLRLSCAASGRTFIVYSMGWYRPAPGKERELVAAITTSVGRTYYADSVKGRFTISRDNAKNTVFLQMISLKPEDTAVYYCADDLLDGYSEYSYWGQGTQVTVSS | low polyreactivity |
| QVQLVESGGGLVQAGGSLRLSCAASGGIFPGYAMGWYRQAPGKETELVAAISGSGSSTYYADSVKGRFTISRDHAKNTVYVQMNSLKPEDTAVYYCNVVTRVLPTRFDYWGQGTQVTVSS | high polyreactivity |
| QVQLVESGGGLVQAGGSLRLSCAASGSIFVEYVMGWYRQAPGKERELVADISWRDGDTYYADSVKGRFTISRDNAKNTVYLQMNSLKPEDTAVYFCAADVIVPESYGYWPLSYYYWGQGTQVTVSS | low polyreactivity |
| QDQLVESGGGLVQAGGTLRLSCDASGSTFFRNAMGWYRQPPGKEREMVADISASGGSTYYADSVKGRFTISRDNAKNTVYLQMNSLKPEDNADYYCNALYIYFYNYLTMDYWGQGSQVTVSS | low polyreactivity |
| QVQLVESGGGLVQAGGSLRLSCAASGFIFPYYDMGWYRQAPGKEREFVAAITKSGGRTYYADSVKGRFTISRDNAKNTVYLQMNSLKPEDTAVYYCNADDPDYLVSYRYDYWGQGTQVTVSS | low polyreactivity |
| QVQLVDSGGGLVQAGGSLRLSCAASGFTFTQYAMAWYIQAPGKERELVASIRSGGSTKYADSVKGRFTISRDNAKNTVYLQMISLKPEDTAVYYCAKDRYHISFFYQMEFWGQGTQVTVSS | low polyreactivity |
| QVQLVESGGGLVQAGGSLRLICAASGFIFLDYAMGWSRPAPGKERELVAAISSRGARTYYADSVKGRFTISRDNEKNTVYLQMNSLKPEDTAVYYCAARGPLDRYGYWGQGTQVTVSS | high polyreactivity |
| QVQLVESGGGLVQAGGSLRLSCADSGSIFYGYTMGWYRQAPGKERELVAAISSSGGSTYYADSVKGRFTISRDNAKNTVYLQMNSLKPEDTAVYYCAAYVPYSPDHVEFNYWGQGTQVTVSS | high polyreactivity |
| QVQLVESGGWLVQAGGSLRLSCAASGSTFEDYVMGWYRQAPGTEREFVAAISRGSGSTYYADSVKGRFTISRDNAKNTVFLQMNSLKPEDTAVYYCAARSQLGYRTRYPTYYWGQGTQVTVSS | high polyreactivity |
| QVQLVESGGGLVQAGGSLRLSCAASGSTFRRNAMGWYRQAPGKERELVAAISRGGNTKYADSVKGGFTISRDNAKNTVYLQKNSLKPEDTAVYYCATYYFSSSHLYGYWGQGTQVTVSS | high polyreactivity |
| QVQLVESGGGLVQAGGSLRLSCAASGITFHRYAMGWYRQAPGKERELVAAISGSGGNTYYADSVKGRFTISRDNAKNTVYLQMNILKPEDTAVYYCAAYPSWYVYPKYYYWGQGTQVTVSS | high polyreactivity |
| QVQLVESGGGLVQAGGSLRLSCAASGSTLALYAMGWYRQAPGKERELVAVITSGGSTDYADSVKGRFTISRDNAKNTVYLQMNSLKPEDTAVYYCAAEGRPGKYSYVYWGQGTQVTVSS | low polyreactivity |
| QVQLVESGGGLVQAGGSLRLSCAASGFTFAYYAMGWYRQAPGKERELVAAISERGGSTYYADSVKGRFTISRDNAKNTVDLQMNSLKPEDTAVYYCARTFWDSPWYQSSYYSWGQGTQVTVSS | low polyreactivity |
| QFQLVESGGGLVQAGGSLRLSCESSGFTFYKYAIGSYRKAPGKERELVAAISRRGTSTYYADSVKGRFTISRDNAKNTVYLQMNSLNPEDTAVYYCNRDVSLSAFDYWGQGTQVTVSS | high polyreactivity |

| Sequence | polyreactivity (PSR sort gate) |
| --- | --- |
| QVQLVESGGRLVQAGGSLRLSCAASGRIFTGYAMGWYRQAPGKERELVAAISSRGGSTYYADYVKVRFTISRDNAKNTVYLQMNSLKPEDTAVYYCNAYQWRHRYTMYYWGQGTQVTVSS | high polyreactivity |
| QFQLVESGGGLVQAGGSLRLSCAASGSIFGGYAMGWYRQAPGKERELVAAISYRGASTYYADSVKGRFTISRDNAKNTVYLLMNSLKPEDTAVYYCAVAARTRARFLYGYDYWGQGTQVTVSS | low polyreactivity |
| QVQLVESGGGLVQAGGSLRLSCAASGNIFDGYAMGWYRQAPGKERELVAAISLSGGSTNYADSVKGRFTISRDNAKNTVYLQMNSLKPEDTAVYYCNARNWYYEGDYWGQGTQVTVSS | high polyreactivity |
| QVQLVESGGGLVQAGGSLRLSCAASGRTFYRYVMAWYRQAPRKERELVADITRSGGSTYYADSVKGRFTISRDNAKNTVYLQMNSLKPEDTAVYYCNKRYRVWFDYWGQGTQVTVSS | high polyreactivity |
| QVQLEESGGGLVQEGGSLRLSCSASGRTFRYAMGWYRQAPGKERELVAAISWRGGSTFYADSVKGRFTISRDNAKNTVYLQMNSLKPEDTAVYYCATEFRYHYLSTWSWRYYYWGQGTQVTVSS | low polyreactivity |
| QVQLVESGGGLVQAGGSLRLSCAASGSTLTYNAMGWYRQAPGKERELVAVISARGGRTYYADSVKGRFTISRDNAKNTVYLQMNSLKPEDTAVYYCAAVFYYSYYRITSGDYWGQGTQVTVSS | high polyreactivity |
| QVQLVESGGGLVQAGGSLRISCAASGITITSYAMGWYRQAPGKEWELVASIDSDDSTNYADSVKGRFTISRDNAKNTVYFQMNSLKPEDNAVYYSAATSKPLGLKTYGYWGQGTQVTVSS | low polyreactivity |
| QVQLVESGGGLVQAGGSLRLSCAASGFTSWDNDMGWYRQAPGKERELVAAISRGGSTNYADSVKGRFTISRDNAKNTVYLQMNSLNPEDTAVYYCAAEDWYQRYGYEYDYWGQGTQVTVSS | low polyreactivity |
| QVQLVESGGGLVQAGGSLRLSCAASGSNFFVYAMGWYRQAPGKERELVASIRWRGSSTYYADSVKGRFTISRDNAKNPVYLQMNSLKPEDTAVYDCAATSYNGYGYWGQGTQVTVSS | high polyreactivity |
| QVQLEESGGGLVQAGGSLRLSCAASGSIFEYYAMGWYRPAPGKERELVAAISSGGPTYYADSVKGRFTISRDNAKNTVYLQMNSLKPEDTAVYYCNADLWYPDYAYWGQGTQLTVSS | low polyreactivity |
| QVQLVESGGGLVQAGGSLRLSCAASGSTFSRYAMGWYRQAPGKEMELVAAISWSGGSTYYADSVKGRFTISRDNAKNTVYLQMNSLKPEDTAVYYCAAYTYSFRANHDYWGQGTQVTVTS | high polyreactivity |
| QVQLVESGGGLVQAGGSLPLSCAASGSIFMTYAIGWYRQAPGKERELVAAIRDSGDRTYYADSVKGRFTISRDNAKNTVYLQINSLKPEDTAVYYCNARWQEALKYDYWGQGTQVTVSS | low polyreactivity |
| QVQLVESGGGLVQAGGSLRLSCAASGFTFIFNAMGWYRQAPGKERELVATISWGGGSTYYADSVKGRFTISRDNAKNTVYLQMNSLKPEDTAVYYCNADGYTLWYEYDYWGQGTQVTVSS | low polyreactivity |
| QVQLVESGGGLVQAGGSLRLSCAASGRIFVYYTMGWYRQAPGKERELVAAITGSGGSTYYADSVKGRFTISRDNAKNTVYLQMNSLKPEDTAVYYCAVYDSYRKFKYWGQGTQVTVSS | high polyreactivity |
| QVQLVESGGGLVQAGGSLRLSCAASGSTLVIYAMGWYRQAPGKERELVAAINFSDGSTSYADSVKGRFTISRDNSKTTVYFQMNSLKPEDTAVYYWGQGTQVTVSS | low polyreactivity |
| QFQLVESGGGLVQAGASLRLSCASSLSTFDHNAMGSYRQAPGKESELVAAISSSGGRTYYADSVKGRFTISRDNAKNTVYLQMNSLKPEDTAVYYCAAVVRRAPEFDYSGQGTQVTVSS | high polyreactivity |
